According to US20210395394A1:
Blank lines part the entries; values can stand above or below the binder they belong to.

Columns and labels:
[1] = target: Pan-species-specific antigen Plasmodium Lactate DeHydrogenase (Pan-PLDH) protein; assay: indirect ELISA, recombinant MA protein coated 1 ug/ml, antibody 0 ng/ml (blank)
[2] = target: Pan-species-specific antigen Plasmodium Lactate DeHydrogenase (Pan-PLDH) protein; assay: indirect ELISA, recombinant MA protein coated 1 ug/ml, antibody 200 ng/ml
[3] = target: Pan-species-specific antigen Plasmodium Lactate DeHydrogenase (Pan-PLDH) protein; assay: indirect ELISA, recombinant MA protein coated 1 ug/ml, antibody 1.6 ng/ml
[4] = target: Pan-species-specific antigen Plasmodium Lactate DeHydrogenase (Pan-PLDH) protein; assay: indirect ELISA, recombinant MA protein coated 1 ug/ml, antibody 0.32 ng/ml
[5] = target: Pan-species-specific antigen Plasmodium Lactate DeHydrogenase (Pan-PLDH) protein; assay: indirect ELISA, recombinant MA protein coated 1 ug/ml, antibody 1000 ng/ml
[6] = target: Pan-species-specific antigen Plasmodium Lactate DeHydrogenase (Pan-PLDH) protein; assay: indirect ELISA, recombinant MA protein coated 1 ug/ml, antibody 40 ng/ml
[7] = target: Pan-species-specific antigen Plasmodium Lactate DeHydrogenase (Pan-PLDH) protein; assay: indirect ELISA, recombinant MA protein coated 1 ug/ml, antibody 8 ng/ml
[8] = target: Pan-species-specific antigen Plasmodium Lactate DeHydrogenase (Pan-PLDH) protein; assay: indirect ELISA at four coating concentrations, KD calculated from half-maximal OD

OD value at 450 nm (refer to 630 nm) [1]: 0.053 OD
OD value at 450 nm (refer to 630 nm) [2]: 2.14 OD
OD value at 450 nm (refer to 630 nm) [3]: 0.274 OD
OD value at 450 nm (refer to 630 nm) [4]: 0.255 OD
OD value at 450 nm (refer to 630 nm) [5]: 2.23 OD
OD value at 450 nm (refer to 630 nm) [6]: 2.01 OD
OD value at 450 nm (refer to 630 nm) [7]: 1.01 OD
B1: Mutation 3 (antibody, mouse IgG2b, kappa, V domains shown)
VH: QVQLQQPGAELVRPGASVKLSCKASGSSFTNYWMNWVKQRPGQGLEWIGMINPSESETRINQKFKDKATLTVDKSSSTAYMQLSSLTAEDSAVYYCAKSGDFYTSYFDYWGQGTTLTVSS
VL: DIQLTQSPASLSASVGETVTITCRGSGNLHNYIAWYQQKQGKSPQLLVYNARTIADGVPSRFSGSGSGTQYSLKINSLQPEDFGSYYCQSFWSTYTFGGGTKLEIKR

Kd [8]: 0.659 nM
B2: Mutation 1-52 (antibody, mouse IgG2b, kappa, V domains shown)
VH: QVQLQQPGAELVRPGASVKLSCKASGYSFTNYWMNWVKQRPGQGLEWIGMIHPSESETRLNQKFKDKATLTVDKSSSTAYMQLSSLTAEDSAVYYCAKSGEFYTTYFDYWGQGTTLTVSS
VL: DIQLTQSPASLSASVGETVTITCRGSGNIHNYLAWYQQKQGKSPQLLVYNARTVADGVPSRFSGSGSGTQYSLKINSLQPEDFGSYYCQSFWSTYTFGGGTKLEIKR

Kd [8]: 0.342 nM
B3: Mutation 1-49 (antibody, mouse IgG2b, kappa, V domains shown)
VH: QVQLQQPGAELVRPGASVKLSCKASGSSFTNYWMNWVKQRPGQGLEWIGMIHPSDSETRLNQKFKDKATLTVDKSSSTAYMQLSSLTAEDSAVYYCAKSGDFYTTYFDYWGQGTTLTVSS
VL: DIQLTQSPASLSASVGETVTITCRGTGNLHNYLAWYQQKQGKSPQLLVYNAKTVADGVPSRFSGSGSGTQYSLKINSLQPEDFGSYYCQTFWSTYTFGGGTKLEIKR

Kd [8]: 0.717 nM
B4: Mutation 1-53 (antibody, mouse IgG2b, kappa, V domains shown)
VH: QVQLQQPGAELVRPGASVKLSCKASGSSFTNYWMNWVKQRPGQGLEWIGMIHPSESETRVNQKFKDKATLTVDKSSSTAYMQLSSLTAEDSAVYYCARSGDFYTSYFDYWGQGTTLTVSS
VL: DIQLTQSPASLSASVGETVTITCRGTGNIHNYLAWYQQKQGKSPQLLVYNARTIADGVPSRFSGSGSGTQYSLKINSLQPEDFGSYYCQYFWSTYTFGGGTKLEIKR

Kd [8]: 0.332 nM
B5: Mutation 1-46 (antibody, mouse IgG2b, kappa, V domains shown)
VH: QVQLQQPGAELVRPGASVKLSCKASGTSFTNYWMNWVKQRPGQGLEWIGMIHPSESETRLNQKFKDKATLTVDKSSSTAYMQLSSLTAEDSAVYYCARSGEFYTTYFDYWGQGTTLTVSS
VL: DIQLTQSPASLSASVGETVTITCRGTGNLHNYLAWYQQKQGKSPQLLVYNARTVADGVPSRFSGSGSGTQYSLKINSLQPEDFGSYYCQYFWSTYTFGGGTKLEIKR

Kd [8]: 0.485 nM
B6: WT 1-3 (antibody, mouse IgG2b, kappa, V domains shown)
VH: QVQLQQPGAELVRPGASVKLSCKASGSSFTNYFMNWVKQRPGQGLEWIGMINPSESETRINQKFKDKATLTVDKSSSTAYMQLSSLTAEDSAVYYCARSGEFYTYYWDYWGQGTTLTVSS
VL: DIQLTQSPASLSASVGETVTITCRGTGNLHNYIAWYQQKQGKSPQLLVYNARTLADGVPSRFSGSGSGTQYSLKINSLQPEDFGSYYCQTFWSSYTFGGGTKLEIKR

Kd [8]: 0.336 nM
B7: Mutation 1-48 (antibody, mouse IgG2b, kappa, V domains shown)
VH: QVQLQQPGAELVRPGASVKLSCKASGYSFTNYWMNWVKQRPGQGLEWIGMIHPSDSETRINQKFKDKATLTVDKSSSTAYMQLSSLTAEDSAVYYCAKSGDFYTYYFDYWGQGTTLTVSS
VL: DIQLTQSPASLSASVGETVTITCRGSGNLHNYLAWYQQKQGKSPQLLVYNAKTLADGVPSRFSGSGSGTQYSLKINSLQPEDFGSYYCQYFWSTYTFGGGTKLEIKR

Kd [8]: 0.559 nM
B8: Mutation 1-55 (antibody, mouse IgG2b, kappa, V domains shown)
VH: QVQLQQPGAELVRPGASVKLSCKASGYSFTNYWMNWVKQRPGQGLEWIGMIHPSDSETRLNQKFKDKATLTVDKSSSTAYMQLSSLTAEDSAVYYCARSGDFYTTYFDYWGQGTTLTVSS
VL: DIQLTQSPASLSASVGETVTITCRGSGNIHNYLAWYQQKQGKSPQLLVYNAKTIADGVPSRFSGSGSGTQYSLKINSLQPEDFGSYYCQYFWSTYTFGGGTKLEIKR

Kd [8]: 0.85 nM
B9: WT 1-4 (antibody, mouse IgG2b, kappa, V domains shown)
VH: QVQLQQPGAELVRPGASVKLSCKASGYSFTNYFMNWVKQRPGQGLEWIGMINPSDSETRVNQKFKDKATLTVDKSSSTAYMQLSSLTAEDSAVYYCAKSGDFYTTYWDYWGQGTTLTVSS
VL: DIQLTQSPASLSASVGETVTITCRGSGNVHNYIAWYQQKQGKSPQLLVYNAKTVADGVPSRFSGSGSGTQYSLKINSLQPEDFGSYYCQYFWSSYTFGGGTKLEIKR

Kd [8]: 0.759 nM
B10: WT 1-1 (antibody, mouse IgG2b, kappa, V domains shown)
VH: QVQLQQPGAELVRPGASVKLSCKASGTSFTNYFMNWVKQRPGQGLEWIGMINPSDSETRINQKFKDKATLTVDKSSSTAYMQLSSLTAEDSAVYYCARSGDFYTSYWDYWGQGTTLTVSS
VL: DIQLTQSPASLSASVGETVTITCRGTGNIHNYIAWYQQKQGKSPQLLVYNAKTLADGVPSRFSGSGSGTQYSLKINSLQPEDFGSYYCQTFWSSYTFGGGTKLEIKR

OD value at 450 nm (refer to 630 nm) [1]: 0.072 OD
OD value at 450 nm (refer to 630 nm) [2]: 2.14 OD
OD value at 450 nm (refer to 630 nm) [3]: 0.297 OD
OD value at 450 nm (refer to 630 nm) [4]: 0.231 OD
OD value at 450 nm (refer to 630 nm) [5]: 2.21 OD
OD value at 450 nm (refer to 630 nm) [6]: 1.98 OD
OD value at 450 nm (refer to 630 nm) [7]: 1 OD
B11: Mutation 2 (antibody, mouse IgG2b, kappa, V domains shown)
VH: QVQLQQPGAELVRPGASVKLSCKASGSSFTNYFMNWVKQRPGQGLEWIGMIHPSESETRINQKFKDKATLTVDKSSSTAYMQLSSLTAEDSAVYYCAKSGDFYTSYFDYWGQGTTLTVSS
VL: DIQLTQSPASLSASVGETVTITCRGSGNLHNYLAWYQQKQGKSPQLLVYNARTIADGVPSRFSGSGSGTQYSLKINSLQPEDFGSYYCQSFWSSYTFGGGTKLEIKR

Kd [8]: 0.454 nM
B12: Mutation 1-47 (antibody, mouse IgG2b, kappa, V domains shown)
VH: QVQLQQPGAELVRPGASVKLSCKASGTSFTNYWMNWVKQRPGQGLEWIGMIHPSESETRVNQKFKDKATLTVDKSSSTAYMQLSSLTAEDSAVYYCAKSGDFYTSYFDYWGQGTTLTVSS
VL: DIQLTQSPASLSASVGETVTITCRGSGNLHNYLAWYQQKQGKSPQLLVYNARTLADGVPSRFSGSGSGTQYSLKINSLQPEDFGSYYCQTFWSTYTFGGGTKLEIKR

Kd [8]: 0.526 nM
B13: Mutation 1-51 (antibody, mouse IgG2b, kappa, V domains shown)
VH: QVQLQQPGAELVRPGASVKLSCKASGSSFTNYWMNWVKQRPGQGLEWIGMIHPSESETRINQKFKDKATLTVDKSSSTAYMQLSSLTAEDSAVYYCAKSGEFYTYYFDYWGQGTTLTVSS
VL: DIQLTQSPASLSASVGETVTITCRGTGNVHNYLAWYQQKQGKSPQLLVYNARTLADGVPSRFSGSGSGTQYSLKINSLQPEDFGSYYCQTFWSTYTFGGGTKLEIKR

Kd [8]: 0.633 nM
B14: Mutation 1-54 (antibody, mouse IgG2b, kappa, V domains shown)
VH: QVQLQQPGAELVRPGASVKLSCKASGTSFTNYWMNWVKQRPGQGLEWIGMIHPSDSETRINQKFKDKATLTVDKSSSTAYMQLSSLTAEDSAVYYCARSGDFYTYYFDYWGQGTTLTVSS
VL: DIQLTQSPASLSASVGETVTITCRGTGNIHNYLAWYQQKQGKSPQLLVYNAKTVADGVPSRFSGSGSGTQYSLKINSLQPEDFGSYYCQSFWSTYTFGGGTKLEIKR

Kd [8]: 0.639 nM
B15: WT 1-2 (antibody, mouse IgG2b, kappa, V domains shown)
VH: QVQLQQPGAELVRPGASVKLSCKASGYSFTNYFMNWVKQRPGQGLEWIGMINPSDSETRVNQKFKDKATLTVDKSSSTAYMQLSSLTAEDSAVYYCARSGDFYTTYWDYWGQGTTLTVSS
VL: DIQLTQSPASLSASVGETVTITCRGTGNVHNYIAWYQQKQGKSPQLLVYNAKTIADGVPSRFSGSGSGTQYSLKINSLQPEDFGSYYCQYFWSSYTFGGGTKLEIKR

Kd [8]: 0.516 nM
B16: WT 1-5 (antibody, mouse IgG2b, kappa, V domains shown)
VH: QVQLQQPGAELVRPGASVKLSCKASGYSFTNYFMNWVKQRPGQGLEWIGMINPSESETRVNQKFKDKATLTVDKSSSTAYMQLSSLTAEDSAVYYCAKSGEFYTTYWDYWGQGTTLTVSS
VL: DIQLTQSPASLSASVGETVTITCRGTGNIHNYIAWYQQKQGKSPQLLVYNARTLADGVPSRFSGSGSGTQYSLKINSLQPEDFGSYYCQSFWSSYTFGGGTKLEIKR

OD value at 450 nm (refer to 630 nm) [1]: 0.066 OD
OD value at 450 nm (refer to 630 nm) [2]: 2.03 OD
OD value at 450 nm (refer to 630 nm) [3]: 0.251 OD
OD value at 450 nm (refer to 630 nm) [4]: 0.211 OD
OD value at 450 nm (refer to 630 nm) [5]: 2.15 OD
OD value at 450 nm (refer to 630 nm) [6]: 1.92 OD
OD value at 450 nm (refer to 630 nm) [7]: 0.939 OD
B17: Mutation 4 (antibody, mouse IgG2b, kappa, V domains shown)
VH: QVQLQQPGAELVRPGASVKLSCKASGSSFTNYFMNWVKQRPGQGLEWIGMIHPSESETRINQKFKDKATLTVDKSSSTAYMQLSSLTAEDSAVYYCAKSGDFYTSYWDYWGQGTTLTVSS
VL: DIQLTQSPASLSASVGETVTITCRGSGNLHNYIAWYQQKQGKSPQLLVYNARTIADGVPSRFSGSGSGTQYSLKINSLQPEDFGSYYCQSFWSTYTFGGGTKLEIKR

Kd [8]: 0.0879 nM
B18: Mutation 1-50 (antibody, mouse IgG2b, kappa, V domains shown)
VH: QVQLQQPGAELVRPGASVKLSCKASGTSFTNYWMNWVKQRPGQGLEWIGMIHPSDSETRVNQKFKDKATLTVDKSSSTAYMQLSSLTAEDSAVYYCAKSGEFYTSYFDYWGQGTTLTVSS
VL: DIQLTQSPASLSASVGETVTITCRGSGNVHNYLAWYQQKQGKSPQLLVYNAKTIADGVPSRFSGSGSGTQYSLKINSLQPEDFGSYYCQSFWSTYTFGGGTKLEIKR
